Test results from patent publication US20180362645A1 (Amgen, published 2018).
Where “and” joins values, the source holds several entries; their conditions need not be identical. Equal entries are not always repeated. Where no end group is shown, it is not given here.

T1: human VPAC1 (human, UniProt P32241 31-457)
T1 sequence (looked up): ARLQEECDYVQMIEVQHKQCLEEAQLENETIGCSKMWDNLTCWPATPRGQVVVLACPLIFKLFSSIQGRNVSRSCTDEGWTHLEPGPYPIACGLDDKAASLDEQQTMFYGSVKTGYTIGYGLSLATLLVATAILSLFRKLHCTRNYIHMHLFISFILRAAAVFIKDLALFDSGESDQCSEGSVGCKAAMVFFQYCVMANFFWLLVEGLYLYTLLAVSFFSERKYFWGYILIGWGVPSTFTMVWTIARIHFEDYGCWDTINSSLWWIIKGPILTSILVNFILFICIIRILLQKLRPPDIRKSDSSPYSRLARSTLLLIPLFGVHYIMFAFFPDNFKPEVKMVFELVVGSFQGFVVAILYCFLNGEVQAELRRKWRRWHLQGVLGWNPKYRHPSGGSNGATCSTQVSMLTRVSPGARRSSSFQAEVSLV

T2: human VPAC2 (human, UniProt P41587 24-438)
T2 sequence (looked up): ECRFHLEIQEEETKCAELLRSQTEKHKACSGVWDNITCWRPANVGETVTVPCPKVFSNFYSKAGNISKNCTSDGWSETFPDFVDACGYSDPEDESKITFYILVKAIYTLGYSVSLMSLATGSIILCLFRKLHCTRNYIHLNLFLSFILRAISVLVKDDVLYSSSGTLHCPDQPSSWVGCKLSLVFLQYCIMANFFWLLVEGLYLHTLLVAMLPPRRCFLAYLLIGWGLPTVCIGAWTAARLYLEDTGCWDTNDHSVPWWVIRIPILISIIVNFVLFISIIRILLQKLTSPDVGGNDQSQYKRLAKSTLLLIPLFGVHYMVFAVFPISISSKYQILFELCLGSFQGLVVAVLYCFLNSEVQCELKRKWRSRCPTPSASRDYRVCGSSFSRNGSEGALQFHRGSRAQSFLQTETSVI

T3: VPAC2
T3 sequence (P41587 whole entry, species assumed, looked up): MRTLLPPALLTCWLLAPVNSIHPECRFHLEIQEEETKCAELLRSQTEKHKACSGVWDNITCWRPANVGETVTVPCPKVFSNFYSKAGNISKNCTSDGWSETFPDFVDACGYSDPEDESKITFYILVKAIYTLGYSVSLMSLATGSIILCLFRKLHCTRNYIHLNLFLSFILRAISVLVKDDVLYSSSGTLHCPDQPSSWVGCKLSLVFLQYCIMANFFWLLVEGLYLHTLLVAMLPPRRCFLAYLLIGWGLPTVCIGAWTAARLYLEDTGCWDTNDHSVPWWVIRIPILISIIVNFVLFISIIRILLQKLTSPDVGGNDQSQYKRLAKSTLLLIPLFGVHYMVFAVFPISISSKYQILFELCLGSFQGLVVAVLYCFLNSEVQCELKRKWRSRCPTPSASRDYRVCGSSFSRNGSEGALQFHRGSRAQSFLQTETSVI

T4: human pituitary adenylate cyclase-activating polypeptide type I receptor (human, UniProt P41586 21-468)
T4 construct: whole, on cells; On SH-SY5Y or recombinant CHO cells (cAMP assay), as membranes of hPAC-1 AequoScreen CHO cells (radioligand assay) and on CHOK1/huPac1 whole cells (KinExA); also called human PAC1; hPAC1
T4 sequence (looked up): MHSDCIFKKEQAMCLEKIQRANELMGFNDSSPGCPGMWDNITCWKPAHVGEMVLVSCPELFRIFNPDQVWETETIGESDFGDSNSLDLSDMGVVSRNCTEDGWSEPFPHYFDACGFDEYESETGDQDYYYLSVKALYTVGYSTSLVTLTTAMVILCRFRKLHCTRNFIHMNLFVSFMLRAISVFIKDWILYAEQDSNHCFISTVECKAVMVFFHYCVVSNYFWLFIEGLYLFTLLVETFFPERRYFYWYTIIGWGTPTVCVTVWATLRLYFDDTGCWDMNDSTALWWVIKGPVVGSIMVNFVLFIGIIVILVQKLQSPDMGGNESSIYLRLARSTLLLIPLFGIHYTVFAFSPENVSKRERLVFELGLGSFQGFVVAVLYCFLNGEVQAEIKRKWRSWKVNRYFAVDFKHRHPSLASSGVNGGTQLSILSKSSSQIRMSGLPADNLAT

B1: 26B (antibody, human IgG1, kappa, N297G)
heavy: not shown
light: DIQLTQSPSFLSASVGDRVTITCRASQSIGRSLHWYQQKPGKAPKLLIKYASQSLSGVPSRFSGSGSGTEFTLTISSLQPEDFATYYCHQSSRLPFTFGPGTKVDIKRTVAAPSVFIFPPSDEQLKSGTASVVCLLNNFYPREAKVQWKVDNALQSGNSQESVTEQDSKDSTYSLSSTLTLSKADYEKHKVYACEVTHQGLSSPVTKSFNRGEC
B2: 14B (antibody, human IgG1, kappa, N297G)
heavy: not shown
light: EIVLTQSPATLSLSPGERATLSCRASQSVGRSLHWYQQKPGQAPRLLIKYASQSLSGIPARFSGSGSGTDFTLTISSLEPEDFAVYYCHQSSRLPFTFGPGTKVDIKRTVAAPSVFIFPPSDEQLKSGTASVVCLLNNFYPREAKVQWKVDNALQSGNSQESVTEQDSKDSTYSLSSTLTLSKADYEKHKVYACEVTHQGLSSPVTKSFNRGEC
B3: 39A (antibody, human IgG2, kappa)
heavy: QVQLQESGPGLVKPSQTLSLTCTVSGGSISSGGYYWSWIRQHPGKGLEWIGYIYYSGNTYYNPSLKSRVTISGDTSKNQFSLKLRSVTAADTAVYYCTRGGAARGMDVWGQGTTVTVSSASTKGPSVFPLAPCSRSTSESTAALGCLVKDYFPEPVTVSWNSGALTSGVHTFPAVLQSSGLYSLSSVVTVPSSNFGTQTYTCNVDHKPSNTKVDKTVERKCCVECPPCPAPPVAGPSVFLFPPKPKDTLMISRTPEVTCVVVDVSHEDPEVQFNWYVDGVEVHNAKTKPREEQFNSTFRVVSVLTVVHQDWLNGKEYKCKVSNKGLPAPIEKTISKTKGQPREPQVYTLPPSREEMTKNQVSLTCLVKGFYPSDIAVEWESNGQPENNYKTTPPMLDSDGSFFLYSKLTVDKSRWQQGNVFSCSVMHEALHNHYTQKSLSLSPGK
light: not shown
notes: also called 39A lot1; 39A lot2
B4: 03A (antibody, human IgG2, kappa, V domains shown)
VH: QVQLVESGGGVVQPGRSLRLSCAASGFTFSYYAIHWVRQAPGKGLEWVAVISYDGSNKYYADSVKGRFTISRDNSKNTLYLQMNSLRAEDTAVYYCARGYDLLTGYPDYWGQGTLVTVSS
VL: DIQLTQSPSFLSASVGDRVTITCRASQSIGRSLHWYQQKPGKAPKLLIKYASQSLSGVPSRFSGSGSGTEFTLTISSLQPEDFATYYCHQSSRLPFTFGPGTKVDIKR
notes: also called LC-03 and HC-03
B5: 28A (antibody, human IgG2, kappa, V domains shown)
VH: QVQLVESGGGVVQPGRSLRLSCAASGFTFSRYAMHWVRQASGKGLEWVAVISYDGSNKYYADSVKGRFTISRDNSKNTLYLLMSSLRAEDTAVFYCARGYDILTGYPDYWGQGTLVTVSS
VL: EIVLTQSPDFQSVTPKEKVTITCRASQSIGRSLHWYQQKPDQSPKLLFKYASQSLSGVPSRFSGSGSGTDFTLTINSLEAEDAATYYCHQSSRLPFTFGPGTKVDIKR
notes: also called LC-10 and HC-39
B6: 05A (antibody, human IgG2, kappa, V domains shown)
VH: QVQLVESGGGVVQPGRSLRLSCAASGFTFSRFAMHWVRRAPGKGLEWVAVISYDGGNKYYAESVKGRFTISRDNSKNTLNLLMNSLRAEDTALFYCARGYDVLTGYPDYWGQGTLVTVSS
VL: DIQLTQSPSFLSASVGDRVTITCRASQSIGRSLHWYQQKPGKAPKLLIKYASQSLSGVPSRFSGSGSGTEFTLTISSLQPEDFATYYCHQSSRLPFTFGPGTKVDIKR
notes: also called LC-05 and HC-06
B7: 29A (antibody, human IgG2, kappa)
heavy: QVQLVESGGGVVQPGRSLRLSCAASGFTFSRYAMHWVRQASGKGLEWVAVISYDGSNKYYADSVKGRFTISRDNSKNTLYLLMSSLRAEDTAVFYCARGYDILTGYPDYWGQGTLVTVSSASTKGPSVFPLAPCSRSTSESTAALGCLVKDYFPEPVTVSWNSGALTSGVHTFPAVLQSSGLYSLSSVVTVPSSNFGTQTYTCNVDHKPSNTKVDKTVERKCCVECPPCPAPPVAGPSVFLFPPKPKDTLMISRTPEVTCVVVDVSHEDPEVQFNWYVDGVEVHNAKTKPREEQFNSTFRVVSVLTVVHQDWLNGKEYKCKVSNKGLPAPIEKTISKTKGQPREPQVYTLPPSREEMTKNQVSLTCLVKGFYPSDIAVEWESNGQPENNYKTTPPMLDSDGSFFLYSKLTVDKSRWQQGNVFSCSVMHEALHNHYTQKSLSLSPGK
light: DIQLTQSPSFLSASVGDRVTITCRASQSIGRSLHWYQQKPGKAPKLLFKYASQSLSGVPSRFSGSGSGTEFTLTISSLQPEDFATYYCHQSSRLPFTFGPGTKVDIKRTVAAPSVFIFPPSDEQLKSGTASVVCLLNNFYPREAKVQWKVDNALQSGNSQESVTEQDSKDSTYSLSSTLTLSKADYEKHKVYACEVTHQGLSSPVTKSFNRGEC
notes: also called LC-11 and HC-39
B8: 38A (antibody, human IgG2, kappa, V domains shown)
VH: QVQLQESGPGLVKPSQTLSLTCTVSGGSISRGGYYWSWIRQHPGKGLEWIGYIYYSGNTYYNPSLKSRVIISGDTSKNQLSLKLRSVTAADTAVYYCARGGAARGMDVWGQGTTVTVSS
VL: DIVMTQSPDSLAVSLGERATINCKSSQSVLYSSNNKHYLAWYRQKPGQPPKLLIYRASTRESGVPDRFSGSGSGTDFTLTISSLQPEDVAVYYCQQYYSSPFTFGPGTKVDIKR
notes: also called LC-18 and HC-50

What was measured:
human VPAC1 = target: T1, human VPAC1; assay: cell-based or functional assay
cyno PAC1 = cyno PAC1 (cynomolgus); assay: cell-based or functional assay
human VPAC2 = target: T2, human VPAC2; assay: cell-based or functional assay
VPAC2 = target: T3, VPAC2; assay: cell-based or functional assay
[1] = target: T4, human pituitary adenylate …; assay: radioligand competition, hPAC1 CHO membranes; competitor 125I-39A
Procedure: (§1) The plates were incubated at room temperature for 2 hours with shaking at 60 rpm, and then the contents of each well were filtered over 0.5% polyethyleneimine (PEI)-treated (for at least two hours) GF/C 96-well filter plates. The GF/C filter plates were washed five times with ice-cold 50 mM Tris, pH 7.5 and dried in an oven at 55° C. for 1 hour. The bottoms of the GF/C plates were then sealed. 40 μl Microscint™ 20 was added to each well, the tops of the GF/C plates were sealed with TopSeal™-A (a press-on adhesive sealing film), and the GF/C plates were counted with TopCount NXT (Packard). The data were analyzed using Prizm (GraphPad Software Inc.)

[2] = target: T4, human pituitary adenylate …; assay: radioligand competition, hPAC1 CHO membranes; competitor 125I-01B
Procedure: as §1

[3] = target: T4, human pituitary adenylate …; assay: radioligand competition, hPAC1 CHO membranes; competitor 125I-26A
Procedure: as §1

[4] = target: T4, human pituitary adenylate …; assay: radioligand competition, hPAC1 CHO membranes; competitor 125I-14B
Procedure: as §1

[5] = target: T4, human pituitary adenylate …; assay: radioligand competition, hPAC1 CHO membranes; competitor 125I-14A
Procedure: as §1

[6] = target: T4, human pituitary adenylate …; assay: radioligand competition, hPAC1 CHO membranes; competitor 125I-26B
Procedure: as §1

[7] = target: T4, human pituitary adenylate …; assay: radioligand competition, hPAC1 CHO membranes; competitor 125I-39B
Procedure: as §1

[8] = target: T4, human pituitary adenylate …; assay: KinExA, CHOK1/huPac1 whole cells
Procedure: Binding of anti-Pac1 antibody with CHOK1/huPac1 cells were tested on KinExA. […] Samples containing anti-Pac1 antibody and whole cells were incubated with rotation at room temperature for 4 hours before 5-minute 220-g centrifugation at 4° C. to separate the whole cells and anti-Pac1 antibody-cell complexes from unbound anti-Pac1 antibody. The supernatants containing free anti-Pac1 antibody were filtered through 0.22 μm filter before loading to the goat-anti-huFc-coated beads on KinExA. […] The binding signal is proportional to the concentration of free anti-Pac1 antibody in solution at each cell density. Equilibrium dissociation constant (KD) was estimated by n-curve analysis in KinExA™ Pro software (Sapidyne Instruments, Inc., Boise, Id.).

[9] = target: T4, human pituitary adenylate …; assay: radioligand competition, hPAC1 CHO membranes; competitor 125I-29B
Procedure: as §1

[10] = target: T4, human pituitary adenylate …; assay: radioligand competition, hPAC1 CHO membranes; competitor 125I-28A
Procedure: as §1

[11] = target: T4, human pituitary adenylate …; assay: radioligand competition, hPAC1 CHO membranes; competitor 125I-29A
Procedure: as §1

| Binder | Ki [1] [nM] | Ki [3] [nM] | Ki [5] [nM] | Kd [8] [nM] | Ki [10] [nM] | Ki [11] [nM] | also measured |
| --- | --- | --- | --- | --- | --- | --- | --- |
| B1 | – | – | – | – | – | – | hVPAC1 IC50 (cAMP assay) (human VPAC1): > 10000 nM; cyno PAC1 IC50 (cAMP assay) (cyno PAC1): 1.3 nM; hVPAC2 IC50 (cAMP assay) (human VPAC2): > 10000 nM |
| B2 | – | – | – | – | – | – | hVPAC1 IC50 (cAMP assay) (human VPAC1): > 10000 nM; cyno PAC1 IC50 (cAMP assay) (cyno PAC1): 0.6 nM; hVPAC2 IC50 (cAMP assay) (human VPAC2): > 10000 nM |
| HSDGIFTDSYSRYRKQMAVKKYLAAVLGKRYKQRVKNK (ligand, UniProt P18509 132-169, looked up, ends and bridges not checked) [PACAP38] | – | – | – | – | – | – | VPAC2 EC50 (agonist activity) (VPAC2): 0.06 nM |
| B3 | 0.16 | 0.13 | 0.2 | 0.036 | – | – | Ki [2]: 0.3 nM and 0.15 nM; Ki [4]: 0.24 nM and 0.43 nM; Ki [6]: 0.17 nM and 0.14 nM; Ki [7]: 0.2 nM and 0.18 nM; Ki [9]: 0.08 nM and 0.14 nM |
| B4 | – | – | – | 0.126 | 0.01 | 0.14 | – |
| B5 | – | – | – | – | < 0.01 | 0.04 | – |
| B6 | – | – | – | – | 0.02 | 0.03 | – |
| B7 | 0.06 | 0.03 | 0.07 | 0.013 | – | 0.04 | Ki [2]: 0.13 nM; Ki [4]: 0.1 nM; Ki [6]: 0.11 nM; Ki [7]: 0.08 nM; Ki [9]: 0.09 nM |
| B8 | 0.11 | 0.07 | 0.07 | 0.016 | – | – | – |
